For assay [1], the target named is human von Willebrand factor, FVIII-free, plasma derived (human) (UniProt P04275). As to the kind of experiment: SPR (BIAcore), hvWf as ligand, FVIII protein as analyte, N=5. (In general: In SPR one partner is held on a chip, and binding of the other changes the refractive index at the surface.)
For assay [2] the target is unchanged. As to the kind of experiment: SPR (BIAcore), binding to vWF.
For assay [3] the target is unchanged. As to the kind of experiment: SPR (BIAcore), single-cycle kinetics 0.13-5.0 nM, plasma derived human vWF immobilized by amine coupling, 1:1 model, N=6.

What is called Kd is the concentration at which binding is half-saturated. A higher Kd goes with lower affinity. Usually koff stands for the rate constant with which the complex falls apart. One may read the kon as the second-order rate constant of association. Low values mean slower complex formation, high ones faster complex formation. In assay [1], “rBDD FVIII (recombinant B-domain deleted FVIII lacking Fc moieties) (from UniProt P00451 20-1667; P00451 1668-2351)” returned a Kd of 0.846 nM, a koff of 0.00114 s⁻¹ and a kon of 1.37e+06 M⁻¹ s⁻¹.
In assay [2], “rFVIIIFc (recombinant B-domain deleted human FVIII-Fc monomer hybrid), drug substance (from UniProt P00451 20-1667; P0DOX5 223-449) (Fc fusion)” yielded a fold difference in affinity (KD) against rBDD FVIII of 2 fold, a fold difference in on-rate against rBDD FVIII of 2 fold and a fold of KD against BDD FVIII alone of 2 fold. Moreover, in assay [1], the dissociation constant Kd was determined as 1.64 nM, the off-rate (koff) is 0.00125 s⁻¹ and the association rate constant (kon) is 792000 M⁻¹ s⁻¹. In assay [3], this substance gave a Kd of 0.34 nM, a dissociation rate constant (koff) of 0.00089 s⁻¹ and a kon of 2.6e+06 M⁻¹ s⁻¹.

The record behind these values is patent US20140294821A1.
